Assay results taken from patent US20260201008A1, “SECRETIN-DERIVED GLP1R SELECTIVE AGONISTS” (GUBRA A/S, priority 2023, published 2026).
Numbered stars: 1 amine (or outer) side, 2 acyl side, 3 side chain; on linkers, the order of the positions; unused ones are H or OH. Square brackets hold non-standard residues; d marks the D form. Side chains are listed from the residue outwards. Ends that are not written are not given here. * marks the point of attachment. C20 diacid = O=C(O)CCCCCCCCCCCCCCCCCCC(=O)*; γGlu = O=C(O)[C@H](CCC(=O)[*:2])N[*:1]; AEEA = NCCOCCOCC(=O)O; Aib = CC(C)(N)C(=O)O

Columns and labels:
[1] = molecular target: human secretin receptor (hSCTR) (human, UniProt P47872 23-440); experiment: cell-based or functional assay
[2] = molecular target: human GLP-1 receptor (hGLP1R) (human, UniProt P43220 24-463); experiment: cell-based or functional assay

human secretin receptor (hSCTR), sequence (P47872 23-440): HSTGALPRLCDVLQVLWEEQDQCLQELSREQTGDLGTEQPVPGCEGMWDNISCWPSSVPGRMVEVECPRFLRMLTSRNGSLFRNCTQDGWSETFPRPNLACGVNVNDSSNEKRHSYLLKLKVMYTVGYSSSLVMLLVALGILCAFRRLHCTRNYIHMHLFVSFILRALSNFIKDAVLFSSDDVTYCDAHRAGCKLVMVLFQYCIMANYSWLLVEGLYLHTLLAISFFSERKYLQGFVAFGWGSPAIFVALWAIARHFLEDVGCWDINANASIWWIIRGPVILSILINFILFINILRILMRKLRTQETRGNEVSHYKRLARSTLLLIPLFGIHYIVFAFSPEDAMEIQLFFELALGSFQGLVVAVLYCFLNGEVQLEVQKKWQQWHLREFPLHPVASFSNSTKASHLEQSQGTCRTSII

Binder | pEC50 hSCTR [1] | pEC50 hGLPR1 [2]
H[Aib]EGTFTSDVSYLKEEA[Aib]TQRFLEHLV-NH2 (not fully specified (residue 14)) [SEQ ID NO: 162] | 6.9 -log M | 12.2 -log M
H[Aib]EGTFTSDVSDLKEEA[Aib]LQRFLEHLV-NH2 (not fully specified (residue 14)) [SEQ ID NO: 153] | 6.5 -log M | 10.7 -log M
H[Aib]EGTFTSDVSYLFEEA[Aib]LQRFLEK([AEEA-AEEA-γGlu-C20 diacid])LV-NH2 [SEQ ID NO: 176] | 5.5 -log M | 10.5 -log M
H[Aib]EGTFTSDVSFLLEGAALQRFIQWLV-NH2 (N-terminus assumed; SMILES CC[C@H](C)[C@H](NC(=O)[C@H](Cc1ccccc1)NC(=O)[C@H](CCCNC(=N)N)NC(=O)[C@H](CCC(N)=O)NC(=O)[C@H](CC(C)C)NC(=O)[C@H](C)NC(=O)[C@H](C)NC(=O)CNC(=O)[C@H](CCC(=O)O)NC(=O)[C@H](CC(C)C)NC(=O)[C@H](CC(C)C)NC(=O)[C@H](Cc1ccccc1)NC(=O)[C@H](CO)NC(=O)[C@@H](NC(=O)[C@H](CC(=O)O)NC(=O)[C@H](CO)NC(=O)[C@@H](NC(=O)[C@H](Cc1ccccc1)NC(=O)[C@@H](NC(=O)CNC(=O)[C@H](CCC(=O)O)NC(=O)C(C)(C)NC(=O)[C@@H](N)Cc1c[nH]cn1)[C@@H](C)O)[C@@H](C)O)C(C)C)C(=O)N[C@@H](CCC(N)=O)C(=O)N[C@@H](Cc1c[nH]c2ccccc12)C(=O)N[C@@H](CC(C)C)C(=O)N[C@H](C(N)=O)C(C)C) [SEQ ID NO: 177] | 6.3 -log M | 10.8 -log M
H[Aib]EGTFTSDVSYLKEEA[Aib]GQRFLEHLV-NH2 (not fully specified (residue 14)) [SEQ ID NO: 154] | 5.4 -log M | 10.8 -log M
H[Aib]WGTFTSDVSYLKEEA[Aib]LQRFLEHLV-NH2 (not fully specified (residue 14)) [SEQ ID NO: 160] | 4.6 -log M | 9.1 -log M
H[Aib]LGTFTSDVSYLK([AEEA-AEEA-γGlu-C20 diacid])EEA[Aib]LQRFLEHLV-NH2 [SEQ ID NO: 170] | 4.6 -log M | 10.6 -log M
H[Aib]EGTFTSDVSWLK([AEEA-AEEA-γGlu-C20 diacid])EEA[Aib]LQRFLEHLV-NH2 [SEQ ID NO: 174] | 7 -log M | 10.9 -log M
H[Aib]QGTFTSDVSYLKEEA[Aib]LQRFLEHLV-NH2 (not fully specified (residue 14)) [SEQ ID NO: 156] | 4.4 -log M | 10.8 -log M
HAEGTFTSDVSYLK([AEEA-AEEA-γGlu-C20 diacid])EEA[Aib]LQRFLEHLV-NH2 [SEQ ID NO: 166] | 6.5 -log M | 11.1 -log M
H[Aib]YGTFTSDVSYLKEEA[Aib]LQRFLEHLV-NH2 (not fully specified (residue 14)) [SEQ ID NO: 159] | 4.6 -log M | 9.1 -log M
H[Aib]EGTFTSDVSRLLEGAALQRFIQWLV-NH2 (N-terminus assumed; SMILES CC[C@H](C)[C@H](NC(=O)[C@H](Cc1ccccc1)NC(=O)[C@H](CCCNC(=N)N)NC(=O)[C@H](CCC(N)=O)NC(=O)[C@H](CC(C)C)NC(=O)[C@H](C)NC(=O)[C@H](C)NC(=O)CNC(=O)[C@H](CCC(=O)O)NC(=O)[C@H](CC(C)C)NC(=O)[C@H](CC(C)C)NC(=O)[C@H](CCCNC(=N)N)NC(=O)[C@H](CO)NC(=O)[C@@H](NC(=O)[C@H](CC(=O)O)NC(=O)[C@H](CO)NC(=O)[C@@H](NC(=O)[C@H](Cc1ccccc1)NC(=O)[C@@H](NC(=O)CNC(=O)[C@H](CCC(=O)O)NC(=O)C(C)(C)NC(=O)[C@@H](N)Cc1c[nH]cn1)[C@@H](C)O)[C@@H](C)O)C(C)C)C(=O)N[C@@H](CCC(N)=O)C(=O)N[C@@H](Cc1c[nH]c2ccccc12)C(=O)N[C@@H](CC(C)C)C(=O)N[C@H](C(N)=O)C(C)C) [SEQ ID NO: 178] | 7.2 -log M | 10.2 -log M
H[Aib]EGTFTSDVSRLK([AEEA-AEEA-γGlu-C20 diacid])EEAASQRFLEHLV-NH2 [SEQ ID NO: 17] | 6.6 -log M | 10.6 -log M
H[Aib]HGTFTSDVSYLK([AEEA-AEEA-γGlu-C20 diacid])EEA[Aib]LQRFLEHLV-NH2 [SEQ ID NO: 171] | 4.5 -log M | 9.8 -log M
H[Aib]EGTFTSDVSYLK([AEEA-AEEA-γGlu-C20 diacid])EEA[Aib]LQRFLEWLV-NH2 [SEQ ID NO: 169] | 6.3 -log M | 10.4 -log M
H[Aib]EGTFTSDVSILK([AEEA-AEEA-γGlu-C20 diacid])EEA[Aib]LQRFLEHLV-NH2 [SEQ ID NO: 172] | 7.7 -log M | 10.8 -log M
H[Aib]EGTFTSDVSYLKEEA[Aib]QQRFLEHLV-NH2 (not fully specified (residue 14)) [SEQ ID NO: 157] | 6.5 -log M | 11.6 -log M
H[Aib]EGTFTSDVSYLHEEA[Aib]LQRFLEKLV-NH2 (not fully specified (residue 25)) [SEQ ID NO: 164] | 6.6 -log M | 10.7 -log M
H[Aib]EGTFTSDVSYL[Aib]EEA[Aib]LQRFLEKLV-NH2 (not fully specified (residue 25)) [SEQ ID NO: 158] | 5.8 -log M | 10.4 -log M
H[Aib]EGTFTSDVSYLKEEA[Aib]VQRFLEHLV-NH2 (not fully specified (residue 14)) [SEQ ID NO: 161] | 6.8 -log M | 11.4 -log M
H[Aib]IGTFTSDVSYLK([AEEA-AEEA-γGlu-C20 diacid])EEA[Aib]LQRFLEHLV-NH2 [SEQ ID NO: 175] | 5.1 -log M | 10.5 -log M
H[Aib]EGTFTSDVSTLKE[Aib]AAEQRFLEHLV-NH2 (not fully specified (residue 14)) [SEQ ID NO: 16] | 6.9 -log M | 10.4 -log M
H[Aib]EGTFTSDVSGLK([AEEA-AEEA-γGlu-C20 diacid])EEA[Aib]LQRFLEHLV-NH2 [SEQ ID NO: 167] | 7 -log M | 11.2 -log M
H[Aib]EGTFTSDVSTLK([AEEA-AEEA-γGlu-C20 diacid])EEA[Aib]LQRFLEHLV-NH2 [SEQ ID NO: 165] | 8 -log M | 11.2 -log M
H[Aib]EGTFTSDVSELK([AEEA-AEEA-γGlu-C20 diacid])E[Aib]AAEQRFLEHLV-NH2 [SEQ ID NO: 18] | 6.3 -log M | 10.5 -log M
H[Aib]EGTFTSDVS[Aib]LKEEA[Aib]LQRFLEHLV-NH2 (not fully specified (residue 14)) [SEQ ID NO: 163] | 7.4 -log M | 10.9 -log M
H[Aib]VGTFTSDVSYLKEEA[Aib]LQRFLEHLV-NH2 (not fully specified (residue 14)) [SEQ ID NO: 155] | 4.6 -log M | 10.9 -log M
H[Aib]EGTFTSDVSFLK([AEEA-AEEA-γGlu-C20 diacid])EEA[Aib]LQRFLEHLV-NH2 [SEQ ID NO: 173] | 6.8 -log M | 10.9 -log M
